T1: fibrin clots (Homo sapiens, UniProt P02671+P02675+P02679)
T1 sequence (P02671 36-866 limits assumed): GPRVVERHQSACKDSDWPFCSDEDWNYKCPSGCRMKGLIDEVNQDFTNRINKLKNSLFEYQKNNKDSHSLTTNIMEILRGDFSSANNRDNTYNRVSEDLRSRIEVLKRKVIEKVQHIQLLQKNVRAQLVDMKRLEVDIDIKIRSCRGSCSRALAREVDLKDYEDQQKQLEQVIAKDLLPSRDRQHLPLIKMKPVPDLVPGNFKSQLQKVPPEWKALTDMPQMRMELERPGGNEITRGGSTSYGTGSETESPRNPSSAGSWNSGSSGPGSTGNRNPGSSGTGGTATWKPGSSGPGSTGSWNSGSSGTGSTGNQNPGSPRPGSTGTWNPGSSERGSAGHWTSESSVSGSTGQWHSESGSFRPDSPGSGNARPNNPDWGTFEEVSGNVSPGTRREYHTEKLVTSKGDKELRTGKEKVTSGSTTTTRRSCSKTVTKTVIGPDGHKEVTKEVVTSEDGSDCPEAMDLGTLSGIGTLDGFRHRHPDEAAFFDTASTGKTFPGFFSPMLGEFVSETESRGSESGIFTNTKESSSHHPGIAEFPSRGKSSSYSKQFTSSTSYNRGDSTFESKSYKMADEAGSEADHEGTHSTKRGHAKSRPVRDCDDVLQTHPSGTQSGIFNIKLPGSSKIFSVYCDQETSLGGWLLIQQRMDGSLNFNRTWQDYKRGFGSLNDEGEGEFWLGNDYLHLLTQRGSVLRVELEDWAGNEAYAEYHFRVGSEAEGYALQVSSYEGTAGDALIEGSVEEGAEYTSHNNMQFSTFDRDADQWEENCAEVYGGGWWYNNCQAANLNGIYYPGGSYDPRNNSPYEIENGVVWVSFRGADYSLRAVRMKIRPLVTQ
T1 sequence (P02675 45-491 limits assumed): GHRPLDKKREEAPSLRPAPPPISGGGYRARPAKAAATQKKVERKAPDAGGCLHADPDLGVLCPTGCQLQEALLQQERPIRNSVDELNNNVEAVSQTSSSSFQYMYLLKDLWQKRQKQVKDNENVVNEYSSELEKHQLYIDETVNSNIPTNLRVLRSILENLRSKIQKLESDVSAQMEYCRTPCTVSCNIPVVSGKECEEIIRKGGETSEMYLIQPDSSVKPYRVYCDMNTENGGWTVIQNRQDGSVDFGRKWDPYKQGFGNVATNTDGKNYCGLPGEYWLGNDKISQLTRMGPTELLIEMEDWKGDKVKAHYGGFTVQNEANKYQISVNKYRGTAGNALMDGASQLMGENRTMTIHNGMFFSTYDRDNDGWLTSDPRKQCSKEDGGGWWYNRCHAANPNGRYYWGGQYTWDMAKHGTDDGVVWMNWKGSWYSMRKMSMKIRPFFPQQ
T1 sequence (P02679 27-453): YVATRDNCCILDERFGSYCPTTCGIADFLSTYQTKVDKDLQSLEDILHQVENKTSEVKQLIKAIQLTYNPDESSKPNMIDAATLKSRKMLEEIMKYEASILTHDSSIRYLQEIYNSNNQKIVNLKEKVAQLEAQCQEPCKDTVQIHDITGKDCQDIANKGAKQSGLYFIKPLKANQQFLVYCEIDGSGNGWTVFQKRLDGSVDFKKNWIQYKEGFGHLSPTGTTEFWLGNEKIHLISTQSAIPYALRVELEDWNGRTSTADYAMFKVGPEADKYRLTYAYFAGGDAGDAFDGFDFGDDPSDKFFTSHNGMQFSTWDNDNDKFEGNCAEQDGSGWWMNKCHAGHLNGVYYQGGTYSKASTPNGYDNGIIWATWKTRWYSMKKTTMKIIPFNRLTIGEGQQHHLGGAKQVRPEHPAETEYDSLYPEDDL

T2: fibrin D-Dimers (Homo sapiens, UniProt P02671+P02675+P02679, DEL433-453)
T2 construct: ELISAs against plates coated with adsorbed fibrin D-Dimers or E Regions
T2 sequence (P02671 130-216 limits assumed): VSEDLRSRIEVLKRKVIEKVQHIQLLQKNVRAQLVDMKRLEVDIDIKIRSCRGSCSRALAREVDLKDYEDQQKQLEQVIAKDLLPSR
T2 sequence (P02675 164-491 limits assumed): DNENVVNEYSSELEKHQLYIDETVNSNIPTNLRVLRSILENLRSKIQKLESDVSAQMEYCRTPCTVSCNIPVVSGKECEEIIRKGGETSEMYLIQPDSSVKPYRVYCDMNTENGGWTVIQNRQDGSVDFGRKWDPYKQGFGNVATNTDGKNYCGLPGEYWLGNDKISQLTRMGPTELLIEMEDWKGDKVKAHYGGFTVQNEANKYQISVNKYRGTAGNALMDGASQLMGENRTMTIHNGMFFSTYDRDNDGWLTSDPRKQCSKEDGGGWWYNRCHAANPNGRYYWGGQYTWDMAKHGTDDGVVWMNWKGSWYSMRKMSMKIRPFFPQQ
T2 sequence (P02679 114-432 limits assumed): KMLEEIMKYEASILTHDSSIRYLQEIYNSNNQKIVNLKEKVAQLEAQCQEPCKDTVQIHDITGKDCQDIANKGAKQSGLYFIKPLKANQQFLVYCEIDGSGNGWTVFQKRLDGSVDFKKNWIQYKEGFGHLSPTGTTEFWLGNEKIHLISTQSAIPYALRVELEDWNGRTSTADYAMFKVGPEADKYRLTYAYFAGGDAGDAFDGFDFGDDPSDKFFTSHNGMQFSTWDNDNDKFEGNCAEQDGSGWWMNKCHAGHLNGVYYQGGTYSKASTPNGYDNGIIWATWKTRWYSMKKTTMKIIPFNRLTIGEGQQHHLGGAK


How the values were obtained:
[1] = target: T1, fibrin clots; assay: Clot microstructure by confocal microscopy; format: biochemical; parameters: from tissue; host or cells: blood plasma (platelet-rich or platelet-poor); details: clots formed in presence of particles, compared to control (fibrin-only) clots
Source text: FIGS. 4A and 4B are maximum-intensity confocal images of fibrin clots formed from platelet-rich plasma (PRP) or platelet-poor plasma (PPP) in the absence or presence of PLPs or S11-ULCs. Fibrin, grey; microgels/platelets, circled.
To allow appreciation of the network structure in the presence of saturation, 0.33× exposures and equivalent exposures are shown on the left- and right-hand sides, respectively, of the images for PRP and PLP clots. […] FIG. 4E is a graph showing the calculated spread area of PLPs, natural platelets, S11-ULCs and H6-PS particles within fibrin matrices. (**p<0.01, ***p<0.001).
To further characterize the nature of PLP-fibrin interactions, clot microstructure was analyzed via confocal microscopy by forming clots in the presence or absence of scFv-ULC microgels. […] These clots were highly heterogeneous, containing regions of dense fibrin observed in conjugation with PLPs (FIG. 4A) with the dense features becoming more pronounced over time. These features were very similar to those observed from clots formed in platelet-rich plasma, although occurring on a different time scale.

[2] = target: T2, fibrin D-Dimers; assay: ELISA against adsorbed fibrin D-Dimers; format: binding; details: D-Dimer dilutions
Method: This was determined through ELISAs against plates coated with adsorbed fibrin D-Dimers or E Regions.
ELISA set-up and analysis was identical to that performed for the plasma-binding ELISA, the main exception being a substitution of human plasma dilutions for D-Dimer or E Region dilutions adsorbed to the 96-well plates. Both D-Dimer and […]

Molecule	clot structure [1]	binding to D-Dimer [2]
PLPs: ultra-low crosslinked pNIPAm-AAc microgels conjugated to fibrin-specific sdFv H6 (conjugate) VH: QVQLLESGGGLVQPGGSLRLSCAASGDRFTHNDMGWVRQAPGKGLEWVSTIPTTDGSTYYADSVKGRFTISRDNSKSTLYLQMNSLRAEDTAVYYCATGYMWKAPAYVKYWGQGTLVTVSSAAAEQKLISEEDLNSAAHYTDIG	significantly altered clot structure	–
H6: fibrin-specific human sdFv clone from phage biopanning, SEQ ID NO: 1 (protein) VHH: QVQLLESGGGLVQPGGSLRLSCAASGDRFTHNDMGWVRQAPGKGLEWVSTIPTTDGSTYYADSVKGRFTISRDNSKSTLYLQMNSLRAEDTAVYYCATGYMWKAPAYVKYWGQGTLVTVSSAAAEQKLISEEDLNSAAHYTDIG	–	negligible binding
